Results as given in patent US20250002534A1.

Target: recombinant LanCL1 (Lanthionine synthetase C-like protein 1) (UniProt O43813)
Assay: competition: displacement of photoprobe SEQ ID NO:22 from rLANCL1, in-gel fluorescence

Sequence of recombinant LanCL1 (Lanthionine synthetase C-like protein 1) (O43813 whole entry): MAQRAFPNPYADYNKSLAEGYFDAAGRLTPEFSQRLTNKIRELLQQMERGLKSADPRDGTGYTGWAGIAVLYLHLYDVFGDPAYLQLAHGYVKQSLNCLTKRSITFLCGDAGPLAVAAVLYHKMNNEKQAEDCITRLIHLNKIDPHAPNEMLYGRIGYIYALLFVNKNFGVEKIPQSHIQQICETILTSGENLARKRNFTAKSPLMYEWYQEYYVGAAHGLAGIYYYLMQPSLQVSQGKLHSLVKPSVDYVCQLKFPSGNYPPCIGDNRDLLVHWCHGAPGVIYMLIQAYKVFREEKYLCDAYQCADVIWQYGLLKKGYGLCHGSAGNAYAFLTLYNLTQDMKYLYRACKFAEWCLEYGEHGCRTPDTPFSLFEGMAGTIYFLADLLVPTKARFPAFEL

For RALNSS [peptide of SEQ ID NO:39, RALNSS], the ED50 displacement value was greater than 200 µM.
